Measurements taken from PMC7198388, “Radiohybrid Ligands: A Novel Tracer Concept Exemplified by ^18F- or ^68Ga-Labeled rhPSMA Inhibitors” (Journal of Nuclear Medicine, 2020).
Read-outs that look alike come from different tables or passages of the source.

Experiments:
PSMA = biological target: T1, PSMA (Homo sapiens, UniProt Q04609); assay: Competitive binding (IC50) on LNCaP cells with (125I-I-BA)KuE as radioligand; conditions: LNCaP cells 1.5 x 10^5/well, 1 h, 4°C, (125I-I-BA)KuE 0.2 nM/well, HBSS 1% BSA; natGa-19F or 19F free-chelator form; mean ± SD, n = 3
T1 construct: PSMA-positive LNCaP cells (300265; Cell Lines Service) were cultivated; host or cells: LNCaP human prostate carcinoma cells
T1 sequence (Q04609 whole entry): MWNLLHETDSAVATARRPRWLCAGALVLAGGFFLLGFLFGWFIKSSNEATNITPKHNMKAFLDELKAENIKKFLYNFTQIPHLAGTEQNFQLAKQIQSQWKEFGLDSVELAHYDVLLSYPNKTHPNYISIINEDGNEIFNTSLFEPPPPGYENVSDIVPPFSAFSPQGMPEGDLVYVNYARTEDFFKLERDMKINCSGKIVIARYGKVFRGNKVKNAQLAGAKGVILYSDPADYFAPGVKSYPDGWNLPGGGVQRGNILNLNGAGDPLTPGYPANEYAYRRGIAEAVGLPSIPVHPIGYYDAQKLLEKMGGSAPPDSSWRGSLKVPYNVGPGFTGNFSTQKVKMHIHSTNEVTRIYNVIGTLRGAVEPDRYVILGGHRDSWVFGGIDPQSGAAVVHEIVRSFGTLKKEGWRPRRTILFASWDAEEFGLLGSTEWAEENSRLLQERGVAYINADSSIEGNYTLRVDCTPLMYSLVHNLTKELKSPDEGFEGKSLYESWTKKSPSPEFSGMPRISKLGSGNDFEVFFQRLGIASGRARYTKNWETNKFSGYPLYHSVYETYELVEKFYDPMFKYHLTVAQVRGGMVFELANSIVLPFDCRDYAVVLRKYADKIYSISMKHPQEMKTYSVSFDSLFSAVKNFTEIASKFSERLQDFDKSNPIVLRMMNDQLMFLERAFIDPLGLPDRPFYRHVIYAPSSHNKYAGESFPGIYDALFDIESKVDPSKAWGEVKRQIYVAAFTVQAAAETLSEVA
Procedure: Data were corrected for nonspecific binding and normalized to the specific-internalization observed for the radioiodinated reference compound (n = 3). […]
with water (10 mL). The purified product was eluted with 50% aqueous ethanol (2 mL), phosphate buffered saline (PBS, 1 mL) and again water (1 mL). After removing ethanol in vacuo, purity of the radiolabelled compounds was determined by radio-HPLC and radio-TLC (ITLC-SG chromatography paper, mobile phase: 0.1 M trisodium citrate and Silica gel 60 RP-18 F254s, mobile phase: 3:2 mixture (v/v) of MeCN in H2O supplemented with 10% of 2 M NaOAc solution and 1% of TFA).
6. Human Serum Albumin (HSA) Binding
HSA binding of the PSMA-addressing ligands was determined according to a previously published procedure via HPLC (7). A Chiralpak HSA column (50 x 3 mm, 5 μm, H13H-2433, Daicel, Tokyo, Japan) […]
literature, in the range of 13 to 99% (7,8). All substances, including the examined PSMA ligands, were […]
final concentration of 0.5 mg/mL.
(Northampton, United States).
Affinity determinations (IC50)
The PSMA affinity (IC50) determinations and synthesis of the radioiodinated reference ligand (((S)-1- […]
described previously (1). Briefly, the respective ligand was diluted (serial dilution 10-4 to 10-10) in Hank’s balanced salt solution (HBSS, Biochrom). […]
(1% BSA). […] Quantification of all collected fractions was accomplished in a γ - counter. […]

[1] = Biodistribution in LNCaP tumor-bearing CB-17 SCID mice; conditions: male, mouse, in vivo, iv, 0.2 nmol, total radioactivity, Biodistribution
Source text: Mice were used for experiments when tumors had grown to a diameter of 5–10 mm (3–6 wk after inoculation).
Selected organs were removed, weighed, and measured in a γ-counter.

LNCaP cells [2] = conditions: 1 h, 37°C, % of (125I-I-BA)KuE, 18F reference ligands, mean ± SD, n = 3; cited from earlier work
Source text: page 20: 8. Supplemental Data 1 Supplemental Table 1.

human serum albumin = biological target: T2, human serum albumin (Homo sapiens, UniProt P02768); conditions: affinity HPLC, Chiralpak HSA column; 19F reference ligands; cited from earlier work
T2 construct: purchased Daicel H13H-2433
T2 sequence (P02768 25-609): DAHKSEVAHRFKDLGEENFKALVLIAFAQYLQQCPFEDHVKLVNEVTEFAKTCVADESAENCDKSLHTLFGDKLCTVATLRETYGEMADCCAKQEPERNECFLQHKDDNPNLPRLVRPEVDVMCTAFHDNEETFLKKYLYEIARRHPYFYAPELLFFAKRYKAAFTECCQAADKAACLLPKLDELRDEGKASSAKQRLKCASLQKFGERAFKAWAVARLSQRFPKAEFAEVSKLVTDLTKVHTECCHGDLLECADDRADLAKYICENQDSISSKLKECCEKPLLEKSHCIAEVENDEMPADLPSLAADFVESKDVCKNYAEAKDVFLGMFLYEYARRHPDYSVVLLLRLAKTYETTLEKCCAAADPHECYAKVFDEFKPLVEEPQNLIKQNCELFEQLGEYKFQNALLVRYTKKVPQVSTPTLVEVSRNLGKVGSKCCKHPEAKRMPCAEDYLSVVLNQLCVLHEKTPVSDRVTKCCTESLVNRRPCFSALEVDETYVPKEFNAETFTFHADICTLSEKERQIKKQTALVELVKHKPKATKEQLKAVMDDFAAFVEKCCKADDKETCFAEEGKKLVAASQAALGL
Procedure: Binding to HSA was assessed by means of a recently described HPLC method (Fig. 3D) ([34]). […] Supplemental Data 1 Supplemental Table 1.

[3] = tested on: LNCaP tumor-bearing male CB-17 SCID mice; conditions: 1 h p.i., mean ± SD, n = 4, cited from earlier work
Procedure: page 21: 9. Supplemental Data 2 Supplemental Table 2. Biodistribution of 68Ga-19F-rhPSMA-7 to 10, 18F-rhPSMA-7 and the reference ligands 18F-DCFPyL and 18F-PSMA-1007 at 1 h p.i. in LNCaP tumor-bearing SCID mice (n=3 for 68Ga-19F-rhPSMA-7 to 9, n=3 for 18F-rhPSMA-7, n=4 for 68Ga-19F-rhPSMA-10, 18F-DCFPyL and 18F-PSMA- 1007). Data for reference ligands were taken from a previously published study by our group (3). Values are expressed as a percentage of injected dose per gram (%ID/g), mean ± standard deviation. 18 18 68Ga-natF- 68Ga-natF- 68Ga-natF- 68Ga-natF- 18F-rhPSMA-7 Organ F-DCFPyL F-PSMA- ...

LNCaP cells [4] = assay: Internalization into LNCaP cells, normalized to (125I-I-BA)KuE; format: cell-based, human; conditions: LNCaP cells 1.25 x 10^5/well, 1 h, 37°C, ligand 0.5 nM/well; % of specific internalization of (125I-I-BA)KuE; 68Ga-19F or 18F free-chelator form; mean ± SD, n = 3
Procedure: Internalization studies were carried out according to a previously published procedure (1). Briefly, LNCaP cells were harvested 24 ± 2 hours before the experiment and seeded in poly -L-lysine coated 24-well plates […]
After removal of the culture medium, the cells were washed once with 500 µL DMEM -F12 (5% BSA) and left to equilibrate for at least 15 min at 37 °C in 200 µL DMEM-F12 (5% BSA). Each well was treated with either 25 µL of either DMEM-F12 (5% BSA, control) or 25 µL of a 100 µM PMPA (2-(Phosphonomethyl)-pentandioic acid, Tocris Bioscience, Bristol, UK) solution in PBS, for blockade. Next, 25 µL of the radioactive-labelled PSMA inhibitor (5.0 nM in PBS) was added and the cells were incubat ed at 37 °C for 60 min. The experiment was terminated by placing the 24 -well plate on ice for 3 min and consecutive removal of the medium. Each well was carefully washed with 250 µL of ice-cold HBSS. Both fractions from the first steps, representing the amount of free radioligand, were combined. Removal of surface bound activity was accomplished by incubation of the cells with 250 µL of ice-cold PMPA (10 µM in PBS) solution for 5 min […]
and rinsed again with another 250 µL of ice-cold PBS. The internalized activity was determined by incubation of the cells in 250 µL 1 M aqueous NaOH for at least 10 min. The obtained fractions were combined with those of the subsequent wash step with 250 µL 1 M aqueous NaOH. Each experiment (control and blockade) was performed in triplicate. Free, surface bound and internalized activity was quantified in a γ-counter. All internalization studies were accompanied by external reference studies, using […]
Data were corrected for non-specific

[5] = Lipophilicity, n-octanol/PBS partition coefficient; format: physicochemical; conditions: pH 7.4
Procedure: Approximately 1 MBq of the labeled tracer was dissolved in 1 mL of a 1:1 mixture (v/v) of PBS (pH 7.4) and n-octanol in a reaction vial (n = 6). After vigorous mixing of the suspension for 3 min at r.t., the vial was centrifuged at 15,000g for 3 min (Biofuge 15, Heraus Sepatech), and 100 μL aliquots of both layers were measured in a γ-counter.

SMILES: CC(C)(C)[Si](F)(c1ccc(C(=O)NC[C@@H](NC(=O)CN2CCN(CC(=O)O)CCN(CC(=O)O)CCN(CC(=O)O)CC2)C(=O)N[C@H](CCCCNC(=O)CCC(=O)NCCC[C@@H](NC(=O)CC[C@H](NC(=O)N[C@@H](CCC(=O)O)C(=O)O)C(=O)O)C(=O)O)C(=O)O)cc1)C(C)(C)C [68/natGa-19F-rhPSMA-10, metal not drawn]
- IC50 (PSMA): 3.8 ± 0.3 nM
- tissue uptake at 1 h ([1]; Adrenals): 2.2 ± 0.3 %ID/g
- tissue uptake at 1 h ([1]; Blood): 1.5 ± 0.3 %ID/g
- tissue uptake at 1 h ([1]; Bone): 0.35 ± 0.13 %ID/g
- tissue uptake at 1 h ([1]; Heart): 0.75 ± 0.13 %ID/g
- tissue uptake at 1 h ([1]; Intestine): 0.47 ± 0.21 %ID/g
- tissue uptake at 1 h ([1]; Kidneys): 77.5 ± 13.6 %ID/g
- tissue uptake at 1 h ([1]; Liver): 0.7 ± 0.2 %ID/g
- tissue uptake at 1 h ([1]; Lung): 1.3 ± 0.2 %ID/g
- tissue uptake at 1 h ([1]; Muscle): 0.33 ± 0.1 %ID/g
- tissue uptake at 1 h ([1]; Pancreas): 0.51 ± 0.03 %ID/g
- tissue uptake at 1 h ([1]; Spleen): 9.4 ± 1.6 %ID/g
- tissue uptake at 1 h ([1]; Stomach): 0.42 ± 0.12 %ID/g
- tissue uptake at 1 h ([1]; Tumor): 11.7 ± 1.9 %ID/g

SMILES: O=C(O)CCC(NC(=O)NC(CCCCNC(=O)c1ccc([18F])nc1)C(=O)O)C(=O)O (centres unmarked) [19/18F-DCFPyL, 2-(3-{1-Carboxy-5-[(6-[^18F]fluoro-pyridine-3-carbonyl)-amino]-pentyl}-ureido)-pen tanedioic acid]
- Internalization (LNCaP cells [2]): 118 ± 4 % of reference
- HSA-binding (human serum albumin): 14%
- Biodistribution, Adrenals [3]: 5.0 ± 4.0 %ID/g
- Biodistribution, Blood [3]: 0.34 ± 0.30 %ID/g
- Biodistribution, Bone [3]: 0.12 ± 0.02 %ID/g
- Biodistribution, Heart [3]: 0.25 ± 0.09 %ID/g
- Biodistribution, Intestine [3]: 0.14 ± 0.02 %ID/g
- Biodistribution, Kidneys [3]: 152.4 ± 15.3 %ID/g
- Biodistribution, Liver [3]: 1.7 ± 0.2 %ID/g
- Biodistribution, Lung [3]: 0.46 ± 0.05 %ID/g
- Biodistribution, Muscle [3]: 0.11 ± 0.02 %ID/g
- Biodistribution, Pancreas [3]: 0.20 ± 0.10 %ID/g
- Biodistribution, Spleen [3]: 9.6 ± 4.4 %ID/g
- Biodistribution, Stomach [3]: 0.20 ± 0.03 %ID/g
- Biodistribution, Tumor ([3]; LNCaP tumor): 7.3 ± 1.5 %ID/g

SMILES: CC(C)(C)[Si](F)(c1ccc(C(=O)NC[C@@H](NC(=O)CCC(C(=O)O)N2CCN(CC(=O)O)CCN(CC(=O)O)CCN(CC(=O)O)CC2)C(=O)N[C@H](CCCCNC(=O)CCC(=O)NCCC[C@@H](NC(=O)CC[C@H](NC(=O)N[C@@H](CCC(=O)O)C(=O)O)C(=O)O)C(=O)O)C(=O)O)cc1)C(C)(C)C (some centres unmarked) [68/natGa-19/18F-rhPSMA-7, metal not drawn]
- Internalization (LNCaP cells [4]): 126 ± 13 % of reference
- Lipophilicity log PO/PBS [5]: - 3.2 ± 0.05
- tissue uptake at 1 h ([1]; Adrenals): 6.7 ± 2.2 %ID/g
- tissue uptake at 1 h ([1]; Blood): 1.9 ± 0.1 %ID/g
- tissue uptake at 1 h ([1]; Bone): 0.52 ± 0.11 %ID/g
- tissue uptake at 1 h ([1]; Heart): 1.2 ± 0.3 %ID/g
- tissue uptake at 1 h ([1]; Intestine): 0.43 ± 0.07 %ID/g
- tissue uptake at 1 h ([1]; Kidneys): 34.1 ± 6.6 %ID/g
- tissue uptake at 1 h ([1]; Liver): 0.77 ± 0.1 %ID/g
- tissue uptake at 1 h ([1]; Lung): 1.7 ± 0.2 %ID/g
- tissue uptake at 1 h ([1]; Muscle): 0.42 ± 0.22 %ID/g
- tissue uptake at 1 h ([1]; Pancreas): 0.71 ± 0.11 %ID/g
- tissue uptake at 1 h ([1]; Spleen): 13.8 ± 5 %ID/g
- tissue uptake at 1 h ([1]; Stomach): 0.51 ± 0.07 %ID/g
- tissue uptake at 1 h ([1]; Tumor): 8.6 ± 0.2 %ID/g
